B1: HDV Ribozyme (parent)
chain: GGCCGGCAUGGUCCCAGCCUCCUCGCUGGCGCCGGCUGGGCAACAUUCCGAGGGGACCGUCCCCUCGGUAAUGGCGAAUGGGACCCA

Variants of: B1
Assay: self-cleavage, relative activity (ratio to wild type); higher = more cleavage; co-transcriptional

Point of comparison: GGCCGGCAUGGUCCCAGCCUCGUCGCUGGCGCCGGCUGGGCAACAUUCCGAGGGGACCGUCCCCUCGGUAAUGGCGAAUGUGACCCA, self-cleavage 0.089. Against it:
- GGCCGGCAUGGUCCCAGCCUCGUCGCUGGCGCCGGCUGGGCAACAUUCCGAGGGGACCGUCCCCUCGGGAAUGGCGAAUGGGACCCA — higher, 0.108
- GGCCGGCAUGGUCCCAGCCUCUUCGCUGGCGCCGGCUGGGCAACAUUCCGAGGGGACCGUCCCCUCGGUUAUGGCGAAUGGGACCCA — higher, 0.587
- GGCCGGCAUGGUCCCAGCCUCUUCGCUGGCGCCGGCUGGGCAACAUUCCGAGGGGACCGUCCCCUCGGUGAUGGCGAAUGGGACCCA — higher, 0.577
- GGCCGGCAUGGUCCCAGCCUCUUCGCUGGCGCCGGCUGGGCAACAUUCCGAGGGGACCGUACCCUCGGUAAUGGCGAAUGGGACCCA — higher, 0.641
- GGCCGGCAUGGUCCCAGCCUCGUCGCUGGCGCCGGCUGGGCAACAUUCCGAGGGGACCUUCCCCUCGGUAAUGGCGAAUGGGACCCA — lower, 0.0817
- GGCCGGCAUGGUCCCAGCCUCUUCGCUGGCGCAGGCUGGGCAACAUUCCGAGGGGACCGUCCCCUCGGUAAUGGCGAAUGGGACCCA — lower, 0.0692
- GGCCGGCAUGGUCCCAGCCUCUUCGCUGGCGCCGGCUGGGCAACAUUCCGAGGGGACCGUCCCCUCGGUAAUGGCGAAUGGGACCCC — higher, 0.665
- GGCCGGCAUGGUCCCAGCCUCUUCGCUGGCGCCGGCUGGGCAACAUUCCGAGGGGACCGUCCCCUCGGUAAUGGCGAAUGGGACCCG — higher, 0.737
- GGCCGGCAUGGUCCCAGCCUCUUCGCUGGCGCCGGCUGGGCAACAUUCCGAGGGGACCGUCCCCUCGGUAAUGGCGGAUGGGACCCA — higher, 0.369
- GGCCGGCAUGGUCCCAGCCUCUUCGCUGGCGCCGGCUGGGCAACAUUCCGAGGGGACCGUCCCCUCGGUAAUGGCGCAUGGGACCCA — higher, 0.141
- GGCCGGCAUGGUCCCAGCCUCGUCGCUGGCGCCGGCUGGGCAACAUUCCGAGGGGACCGUCCCCUCGGUAAUGGCGAAUGCGACCCA — lower, 0
- GGCCGGCAUGGUCCCAGCCUCGUCGCUGGCGCCGGCUGGGCAACAUUCCGAGGGGACCGUCCCCUCGGUAAAGGCGAAUGGGACCCA — higher, 0.196
- GGCCGGCAUGGUCCCAGCCUCGUCGCUGGCGCCGGCUGGGCAACAUUCCGAGGGGACCGUCCCCUCGGUAAGGGCGAAUGGGACCCA — lower, 0.0554
- GGCCGGCAUGGUCCCAGCCUCGUCGCUGGCGCCGGCUGGGCAACAUCCCGAGGGGACCGUCCCCUCGGUAAUGGCGAAUGGGACCCA — higher, 0.18
- GGCCGGCAUGGUCCCAGCCUCGUCGCUGGCGCCGGCUGGGCAACAUACCGAGGGGACCGUCCCCUCGGUAAUGGCGAAUGGGACCCA — higher, 0.122
- GGCCGGCAUGGUCCCAGCCUCUUCGCUGGCGCCGGCUGGGCAACAUUCCGUGGGGACCGUCCCCUCGGUAAUGGCGAAUGGGACCCA — higher, 0.708
- GGCCGGCAUGGUCCCAGCCUCUUCGCUGGCGCCGGCUGGGCAACAUUCCGAGGGGAUCGUCCCCUCGGUAAUGGCGAAUGGGACCCA — higher, 0.817
- GGCCGGCAUGGUCCCAGCCUCUUCGCUGGGGCCGGCUGGGCAACAUUCCGAGGGGACCGUCCCCUCGGUAAUGGCGAAUGGGACCCA — higher, 0.126
- GGCCGGCAUGGUCCCAGCCUCUUCGCUGGCGCCGGCUGGGCAACAUUCCGAGGGGACCGUCCCCUCGGUAAUGGCGAUUGGGACCCA — higher, 0.197
- GGCCGGCAUGGUCCCAGCCUCGUCGCUGGCGCCGGCUGGGCAACAUUCCGAGGGGACCGUCCCCUCGGUAAUGGCGAAUGGAACCCA — lower, 0.0723
- GGCCGGCAUGGUCCCAGCCUCGUCGCUGGCGCCGGCUGGGCAACAUUCCGAGGGGACCGUCCCCUCGGUAAUGGCGAAUGGUACCCA — lower, 0.0652
- GGCCGGCAUGGUCCCAGCCUCGUCGCUGGCGCCGGCUGGGCAACACUCCGAGGGGACCGUCCCCUCGGUAAUGGCGAAUGGGACCCA — higher, 0.116
- GGCCGGCAUGGUCCCAGCCUCUUCGCUGGCGCCGGCUGGGCAACUUUCCGAGGGGACCGUCCCCUCGGUAAUGGCGAAUGGGACCCA — higher, 0.325
- GGCCGGCAUGGUCCCAGCCUCUUCGCUGGCGCCGGCUGGGCAACCUUCCGAGGGGACCGUCCCCUCGGUAAUGGCGAAUGGGACCCA — higher, 0.113
- GGCCGGCAUGGUCCCAGCCUCGUCGCUGGCGCCGGCCGGGCAACAUUCCGAGGGGACCGUCCCCUCGGUAAUGGCGAAUGGGACCCA — higher, 0.136
- GGCCGGCAUGGUCCCAGCCUCGUCGCUGGCGCCGGCGGGGCAACAUUCCGAGGGGACCGUCCCCUCGGUAAUGGCGAAUGGGACCCA — lower, 0.0831
- GGCCGGCAUGGUCCCAGCCUCGUCGCUGGCGCCGGCUGGGCAACAUUCCGAGGGGACCGUCCCCUCCGUAAUGGCGAAUGGGACCCA — higher, 0.132
- GGCCGGCAUGGUCCCAGCCUCGUCGCCGGCGCCGGCUGGGCAACAUUCCGAGGGGACCGUCCCCUCGGUAAUGGCGAAUGGGACCCA — lower, 0
- GGCCGGCAUGGUCCCAGCCUCUUCGCUGGCGCCGGUUGGGCAACAUUCCGAGGGGACCGUCCCCUCGGUAAUGGCGAAUGGGACCCA — higher, 0.254
- GGCCGGCAUGGUCCCAGCCUCUUCGCUGGCGCCGGGUGGGCAACAUUCCGAGGGGACCGUCCCCUCGGUAAUGGCGAAUGGGACCCA — higher, 0.162
- GGCCGGCAUGGUCCCAGCCUCUUCGCUGGCGCCGGCUGGGCACCAUUCCGAGGGGACCGUCCCCUCGGUAAUGGCGAAUGGGACCCA — lower, 0.0282

— the RNAGym collection of RNA variant scans (doi:10.7554/elife.80360)
